Legend:
MYB101 MYB domain [1] = biological target: T1, MYB101 MYB domain (Arabidopsis thaliana, UniProt O80883 1-133); assay: EMSA; 10 mM Tris-Cl, 50 mM KCl, 1 mM DTT, pH 7.5, room temperature 20 min; 20 fmol probe, 200 ng protein, 50 ng poly(dI-dC) in 20 ul; 6% native PAGE, 0.5x TBE; conditions: protein: recombinant; tags: 6xHis (pET-30a(+)); annealed complementary oligonucleotides
T1 sequence: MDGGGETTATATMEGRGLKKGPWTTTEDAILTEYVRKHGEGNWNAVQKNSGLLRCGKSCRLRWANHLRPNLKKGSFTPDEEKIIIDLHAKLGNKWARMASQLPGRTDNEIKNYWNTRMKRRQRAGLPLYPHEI

MYB101 MYB domain [2] = biological target: T1, MYB101 MYB domain; assay: competition; 500x molar excess vs labeled DG2WT; 10 mM Tris-Cl, 50 mM KCl, 1 mM DTT, pH 7.5, room temperature 20 min; 20 fmol probe, 200 ng protein, 50 ng poly(dI-dC) in 20 ul; 6% native PAGE, 0.5x TBE; conditions: protein: recombinant; tags: 6xHis (pET-30a(+)); annealed complementary oligonucleotides

B1: DG1WT (dsDNA)
DNA 1: TTATGCATATAACAAAAATAATTTCAATGC
DNA 2: GCATTGAAATTATTTTTGTTATATGCATAA
B1: binds (MYB101 MYB domain [1]).

B2: mDG2WT (dsDNA)
DNA 1: GACACAAATCAACAGCTCGAGGACAAAATT
DNA 2: AATTTTGTCCTCGAGCTGTTGATTTGTGTC
B2: no binding (MYB101 MYB domain [2]).

B3: DG2WT (dsDNA)
DNA 1: GACACAAATCAACAGTAACAAAACAAAATT
DNA 2: AATTTTGTTTTGTTACTGTTGATTTGTGTC
B3: binds (MYB101 MYB domain [1]).

B4: DG3WT (dsDNA)
DNA 1: ACGTCGGAAGGATTAACAAAAAAAAAGCCGTGGCGTT
DNA 2: AACGCCACGGCTTTTTTTTTGTTAATCCTTCCGACGT
B4: binds (MYB101 MYB domain [1]).
